Test results reported in patent US20040248765.

System: Example (8): 1-[3-(D-Alanyl-L-alanyl-L-alanyl-L-leucyl-glycyl-L-leucyl-L-prolylamino)-propylamino]anthraquinone trifluoroacetate

Sequence of human recombinant MMP-9 (chain, as listed by the source): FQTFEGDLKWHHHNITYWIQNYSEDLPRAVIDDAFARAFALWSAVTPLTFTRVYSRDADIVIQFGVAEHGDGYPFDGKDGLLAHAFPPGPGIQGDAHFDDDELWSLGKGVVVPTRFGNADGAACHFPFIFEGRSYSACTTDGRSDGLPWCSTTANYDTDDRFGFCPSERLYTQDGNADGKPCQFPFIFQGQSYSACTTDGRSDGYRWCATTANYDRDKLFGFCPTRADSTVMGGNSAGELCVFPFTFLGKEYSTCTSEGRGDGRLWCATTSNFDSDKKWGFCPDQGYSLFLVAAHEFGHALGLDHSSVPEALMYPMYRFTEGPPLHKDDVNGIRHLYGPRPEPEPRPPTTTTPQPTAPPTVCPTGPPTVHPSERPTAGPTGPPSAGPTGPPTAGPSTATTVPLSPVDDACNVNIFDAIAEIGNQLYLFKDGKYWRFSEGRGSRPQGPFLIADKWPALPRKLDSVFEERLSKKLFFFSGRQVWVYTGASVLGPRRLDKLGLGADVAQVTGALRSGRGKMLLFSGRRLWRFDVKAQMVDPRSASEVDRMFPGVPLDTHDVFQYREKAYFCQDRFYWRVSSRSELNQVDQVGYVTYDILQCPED

## human recombinant MMP-9
  cleavage of the peptide conjugate by the enzyme, followed by HPLC and MS/MS: cleavage to anthraquinonyl, spacer-linked tripeptide Example 4
